As a reminder, the IC50 is the point on the concentration scale where inhibition reaches its midpoint. A low value points to greater potency in that assay. For orientation: EC50 means the concentration giving half of the maximal effect. Higher therefore signals weaker potency.

Results on four molecules are retold here after patent US20170137512A1 (Ablynx, published 2017).

Test [1] has as its target T1, cyno Kv1.3 (Macaca fascicularis, UniProt P22001 1-575 (human entry)).
T1 chain: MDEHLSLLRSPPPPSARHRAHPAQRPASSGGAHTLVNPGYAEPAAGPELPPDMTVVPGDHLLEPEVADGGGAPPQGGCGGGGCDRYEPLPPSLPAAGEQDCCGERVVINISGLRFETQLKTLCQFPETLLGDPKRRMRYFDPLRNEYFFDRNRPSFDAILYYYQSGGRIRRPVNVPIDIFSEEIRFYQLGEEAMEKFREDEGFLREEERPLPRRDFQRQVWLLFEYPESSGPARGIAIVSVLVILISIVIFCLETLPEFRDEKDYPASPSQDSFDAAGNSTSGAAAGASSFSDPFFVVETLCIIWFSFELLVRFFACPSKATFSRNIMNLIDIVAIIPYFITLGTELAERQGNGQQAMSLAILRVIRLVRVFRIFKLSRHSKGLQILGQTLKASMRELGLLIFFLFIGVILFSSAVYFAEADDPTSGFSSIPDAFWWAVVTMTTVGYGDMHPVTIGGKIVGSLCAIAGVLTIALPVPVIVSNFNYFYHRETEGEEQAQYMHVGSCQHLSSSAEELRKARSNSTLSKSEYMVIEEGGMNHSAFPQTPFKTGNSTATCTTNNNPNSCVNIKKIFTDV

The target of test [2] is T2, human Kv1.3 (Homo sapiens, UniProt P22001 1-575). As to the kind of experiment: cell-based or functional assay.
T2 sequence (P22001 whole entry): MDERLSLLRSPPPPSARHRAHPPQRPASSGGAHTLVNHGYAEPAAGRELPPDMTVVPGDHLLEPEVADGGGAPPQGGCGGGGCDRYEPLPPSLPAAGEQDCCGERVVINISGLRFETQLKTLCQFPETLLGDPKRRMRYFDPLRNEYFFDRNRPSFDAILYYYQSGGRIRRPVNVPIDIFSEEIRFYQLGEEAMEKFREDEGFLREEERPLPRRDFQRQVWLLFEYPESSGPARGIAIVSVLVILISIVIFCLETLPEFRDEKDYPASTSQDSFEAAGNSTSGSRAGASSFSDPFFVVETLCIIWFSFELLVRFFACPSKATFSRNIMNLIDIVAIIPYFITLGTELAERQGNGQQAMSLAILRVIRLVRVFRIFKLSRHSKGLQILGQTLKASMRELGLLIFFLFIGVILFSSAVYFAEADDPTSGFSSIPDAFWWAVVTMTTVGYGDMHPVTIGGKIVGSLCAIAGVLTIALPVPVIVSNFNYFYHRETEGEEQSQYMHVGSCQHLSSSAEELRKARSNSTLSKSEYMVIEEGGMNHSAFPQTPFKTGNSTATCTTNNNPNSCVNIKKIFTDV
For test [3], the target named is T2, human Kv1.3. As to the kind of experiment: cell-based or functional assay. The source holds these as a separate data set.
For test [4], the target named is T2, human Kv1.3. As to the kind of experiment: cell-based or functional assay. The source holds these as a separate data set.
Test [5] concerns the target T2, human Kv1.3. The test can be described thus: cell-based or functional assay. This is another data set of the same source.
Another test concerns the target T3, rat Kv1.3 (Rattus norvegicus, UniProt P15384 1-525).
T3 construct: Expressed on CHO cells
As to the kind of experiment: FACS, CHO cells expressing rat Kv1.3. A general note: In flow cytometry, cells or beads pass a laser one at a time.

The target in test [6] is T1, cyno Kv1.3. The test can be described thus: FACS, CHO cells expressing cyno Kv1.3.
Test [7] has as its target T2, human Kv1.3. The test can be described thus: FACS, CHO cells expressing human Kv1.3.

B1: A019400032 (VHH)
chain: DVQLVESGGGLVQAGGSLGLSCSASGLLFSRNSAGWYRQAPGKRREFVARIRMGGSINYADSVKGRFTVSRDNAKNMMYLQMNDLKPEDTAVYFCSGWREGFYEYWGQGTLVTVSSGGGGSGGGGSGGGGSGGGGSGGGGSGGGGSGGGGSEVQLVESGGGLVQAGGSLGLSCSASGLLFSRNSAGWYRQAPGKRREFVARIRMGGSINYADSVKGRFTVSRDNAKNMMYLQMNDLKPEDTAVYFCSGWREGFYEYWGQGTLVTVSS
In the case of B1, the IC50 with cyno Kv1.3 [1] is 0.56 nM. The “Average IC50, Kv1.3 current, IonWorks perforated patch clamp, CHL cells” value (“Average IC50, Kv1.3 current … CHL cells” below) with human Kv1.3 [2] worked out at 1.2 nM. Besides, in the test with human Kv1.3 [3], the “IC50, CD25 read out, CCR7-CD45RA- T cells stimulated with anti-CD3” value is 0.12 nM and the “IC50, IFNγ read out, CCR7-CD45RA- T cells stimulated with anti-CD3” value was found to be 0.069 nM. Also, in the test with human Kv1.3 [4], the “IC50, CD25 read out, T cell activation assay” value stood at 0.12 nM; the “IC50, CD25 read out, T cell activation assay, with 10 µM HSA” value was 0.33 nM; the “IC50, IFNγ read out, T cell activation assay” value worked out at 0.069 nM; the “IC50, IFNγ read out, T cell activation assay, with 10 µM HSA” value amounted to 0.086 nM.

B2: A019400009 (VHH)
chain: EVQLVESGGGLVQAGGSLGLSCSASGLLFSRNSAGWYRQAPGKQREFVARIRMGGSINYADTVKGRFTISRDNAKNTVYLQMNSLKPEDTAVYYCSSWRTGFYEYWGQGTLVTVSSGGGGSGGGGSGGGGSGGGGSGGGGSGGGGSGGGGSEVQLVESGGGLVQAGGSLGLSCSASGLLFSRNSAGWYRQAPGKQREFVARIRMGGSINYADTVKGRFTISRDNAKNTVYLQMNSLKPEDTAVYYCSSWRTGFYEYWGQGTLVTVSS
For the molecule B2, in the test with human Kv1.3 [5], the “Average IC50, Kv1.3 current, IonFlux automated patch clamp, HEK293H cells” value came to 0.73 nM. In addition, the “Average IC50, Kv1.3 current … CHL cells” value with human Kv1.3 [2] was 0.81 nM.

B3: A019400015 (VHH)
chain: EVQLVESGGGLVQAGGSLGLSCSASGLLFSRNSAGWYRQAPGKQREFVARIRMGGSINYADTVKGRFTISRDNAKNTVYLQMNSLKPEDTAVYYCSSWRTGFYEYWGQGTLVTVSSGGGGSGGGGSGGGGSGGGGSGGGGSGGGGSGGGGSEVQLVESGGGLVQAGGSLGLSCSASGLLFSRNSAGWYRQAPGKQREFVARIRMGGSINYADTVKGRFTISRDNAKNTVYLQMNSLKPEDTAVYYCSSWRTGFYEYWGQGTLVTVSSGGGGSGGGGSGGGGSGGGGSGGGGSGGGGSGGGGSEVQLVESGGGLVQAGGSLGLSCSASGLLFSRNSAGWYRQAPGKQREFVARIRMGGSINYADTVKGRFTISRDNAKNTVYLQMNSLKPEDTAVYYCSSWRTGFYEYWGQGTLVTVSS
notes: Trivalent Nanobody construct (family 12); also called A0194009G09-35GS-A0194009G09-35GS-A0194009G09
In the test with cyno Kv1.3 [1], B3 came in with an IC50 of 0.2 nM. The “Average IC50, Kv1.3 current … CHL cells” value with human Kv1.3 [2] was determined as 0.8 nM. Further, in the test with human Kv1.3 [3], the “IC50, CD25 read out, CCR7-CD45RA- T cells stimulated with anti-CD3” value came to 0.059 nM. The “IC50, IFNγ read out, CCR7-CD45RA- T cells stimulated with anti-CD3” value with human Kv1.3 [3] was 0.032 nM. The figures for the EC50 with rat Kv1.3, with cyno Kv1.3 [6] and with human Kv1.3 [7] were 0.44 nM, 0.31 nM and 0.66 nM, respectively.

B4: A019400004 (other)
chain: EVQLVESGGGLVQAGGSLSLSCTASGGTFRNFGMGWFRQAQGKEREFVAAISRTGGHTYYQDSVKGRFTISKDNAKNILSLQMNSLKPEDTAVYYCAARFRFGDGTYYYQRAFYDFWGQGTQVTVSSGGGGSGGGGSGGGGSGGGGSGGGGSGGGGSGGGGSGGGGSEVQLVESGGGLVQAGGSLSLSCTASGGTFRNFGMGWFRQAQGKEREFVAAISRTGGHTYYQDSVKGRFTISKDNAKNILSLQMNSLKPEDTAVYYCAARFRFGDGTYYYQRAFYDFWGQGTQVTVSS
notes: Bivalent Nanobody construct (family 1 - family 1), expressed in Pichia; also called A019400003-40GS-A019400003
B4 gave an IC50 with cyno Kv1.3 [1] of 0.64 nM. The “Average IC50, Kv1.3 current … CHL cells” value in the test with human Kv1.3 [2] is greater than 1000 nM. For the same molecule, the EC50 amounted to 1.1 nM in the test with rat Kv1.3, 0.44 nM in the test with cyno Kv1.3 [6] and 2.2 nM with human Kv1.3 [7].
